Assays:
[1] = target: T1, purified recombinant 161P2F10B extracellular domain (Tag5-161P2F10B ECD, amino acids 46-875) (human, UniProt O14638 46-875); assay: SPR (BIAcore), MAb captured on chip, recombinant 161P2F10B injected, 1:1 fit;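 note: purified human MAbs immobilised by capture on a CM5 chip surface, about 150 RU of antibody per cycle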
T1 construct: also called full length ECD
Description: Briefly, each purified human MAb is captured onto a CM5 sensor chip surface. On average approximately 150 RUs of each MAb is captured in every cycle.

[2] = target: T2, 161P2F10B variant 1 (human 161P2F10B), on the cell surface (human, UniProt O14638 1-875); assay: FACS titration on KU-812 cells, one site binding fit
T2 construct: Cell surface pyrophosphatase/phosphodiesterase; also called 161P2F10B v.1; CD203c
Protocol: At the end of the incubation, cells were washed and incubated with anti-hIgG-PE detection antibody for 45 min at 4° C. After washing the unbound detection antibodies, the cells were analyzed by FACS. MFI values of each point were obtained using CellQuest Pro software and were used for the affinity calculation using Graphpad Prism software and the one site binding (hyperbola) equation.

[3] = target: T2, 161P2F10B variant 1 (human 161P2F10B), …; assay: flow cytometry on cells or ELISA on immobilized 161P2F10B

Binder | Kd [1] [nM] | koff [1] [s⁻¹] | kon [1] [M⁻¹ s⁻¹] | Kd [2] [nM] | binding result [3]
H16-7.213 (antibody, V domains shown) VH: WGLSEVSCKASGYTFTGYYMHWVRQAPGQGLEWMGWINPNSGGTNYAQKFQGRVTMTRDTSISTAYMELSRLRSDDTAVYYCARELRYFGWLLSSLDYWGQGTLVTVSS VL: DIQMTQSPSSLSASVGDRVTITCRASQSISSYLNWFQQKPGKAPKLLIYAASSLQSGVPSRFSGSESGTDFTLTISSLQPEDFATYSCQQSYSFPLTFGGGTKVEIKR | 3.9 | 0.000509 | 129000 |  | 
Ha16-1(3,5)18 (antibody, IgG1, V domains shown, The limits of VH (1-114) and VL (1-108) are stated in CLM-00001; the entries also hold a portion of the constant region; also called Ha16-1(3, 5)18.1; ATCC PTA-7452) VH: GPGLVKPSETLSLTCTVPGGSIRSYFWSWIRQPAGKGLEWIGRFYFSGSTNYNPSLKSRVTMSVDTSKNQFSLKLSSVTAADTAVYYCARDYGDHYYYYGMDVWGQGTTVTVSS VL: VLTQPPSVSAAPGQKVTISCSGSSSNIGNNYVSWYQQFPGTAPKFLIYDNNKRSSGIPDRFSGSKSGTSATLGITGLQTGDEADYYCGTWDSSLSAVIFGGGTKLTVL | 28 | 0.00062 | 22000 | 0.047 | 
Ha16-1(1)11 (antibody, V domains shown, also called ATCC PTA-7450) VH: GPGLVKPSETLSLTCTVSGGSISSYYWSWIRQPPGKGLEWIGYIYYSGSTNYNPSLKSRVTISVDTSKNQFSLKLSSVTAADTAVYYCARAVSYYYYGMDVWGQGTTVTVSS VL: DIQMTQSPSSLSASVGDRVTITCRTIQNINSYLNWYQQRPGKAPKLLIYATSSLQSGVPSRFSGSGSGTDFTLTISSLQPEDFATYYCQQTYSTLFTFGPGTKVDIKR | 21.7 | 0.00143 | 65800 | 0.004 | 
H16-1.61.1 (antibody, V domains shown) VH: EVQLVESGGGVVQPGRSLRLSCAASGFTFSSYGMHWVRQAPGKGLEWVAVIWYDGSNKYYADSVKGRFTISRDNSKNTLYLQMNSLRAEDTAVYYCARSRITIFGVVHYGMDVWGQGTTVTVSS VL: DTQLTQSPSSLSASVGDRVTITCRASQSISSYLNWYQLKPGKAPKLLIYAASSLESGVPSRFSGSESGTDFTLTISSLQPEDFATYYCQQSYNSPITFGPGTKVDIKR |  |  |  |  | binds
H16-1.68 (antibody, V domains shown) VH: EVHLVESGGGVVQPGRSLRLSCAASGFTFRSYGMHWVRQAPGKGLEWVAVIWYDGSNKYYADSVKGRFTISRDNSKNTLYLQMNSLRAEDMAMYYCARSRITIFGVVHYGMDVWGQGTTVTVSS VL: TQLTQSPSSLSASVGDRVTITCRASQNINSYLNWYQQKPGKAPKLLIYAASSLQSGVPSRFSGSGSGTDFTLTISSLQPEDFTTYYCQQSYSSAPTFGGGTKLEIKR | 2.3 | 0.000244 | 106000 |  | 
H16-1.67 (antibody, V domains shown) VH: VESGPGLVKPSQTLSLTCTVSGGSINSFGYYWSWIRQYPGKGLEWIGFLYFTGSTYYNPSLKSRVTISVDTSKSQFSLKLSSVTAADTAVYYCARAGTMVRGAHYYGMDVWGQGTTVTVSS VL: not shown | 43 | 0.0007 | 16000 | 0.02 | 
Ha16-1(3,5)36 (antibody, V domains shown) VH: EVQLVESGPGLVKPSETLSLTCTVSGGSISSSSYYWGWIRQPPGKGLEWIGSMYYSGSTYHNPSLKSRVIISVDTSKNQFSLKLSSVTAADTAVYYCARHYITVAGIFDYWGQGTLVTVSS VL: not shown | 8.7 | 0.00046 | 52900 |  | 
H16-9.65 (antibody, V domains shown, Fully human XenoMouse MAb; Entries hold the leader (or part of it) and a portion of the constant region) VH: QVQLVESGGGVVQPGRSLRLSCAASGFTFSSYGMHWVRQAPGKGLEWVATIWFDGSNGYYADSVKGRFTISRDNSKNTLYLQMNSLRAEDTAVYYCARDSSGSYDHFDYWGQGTLVTVSS VL: not shown | 5 | 0.000464 | 93700 |  | 
H16-7.8 (antibody, V domains shown, Entries hold the leader and a portion of the constant region) VH: QVQLQESGPGLVKPSQTLSLTCTVSGGSISSGGYYWSWIRQHPGKGLEWIGIIYYSGSTYYNPSLKSRVTISVDTSKNQFSLKLNSVTAADTAVFYCARVAIVTTIPGGMDVWGQGTTVTVSS VL: EIVLTQSPDFQSVTPKEKVTITCRASQSIGISLHWYQQKPDQSPKLLIKYASQSFSGVPSRFSGSGSGTDFTLTINSLEAEDAATYYCHQSRSFPWTFGQGTKVEIKR | 18 | 0.00063 | 35000 | 0.07 | 
H16-9.69 (antibody, V domains shown) VH: WGLSEVSCKASGYTFTSYDIHWVRQATGQGLEWMGWMNPNSGNTVYAQKFQGRVTMTRNTSISTAYMELSSLRSEDTAVYYCARTVLLWPFDYWGQGTLVTVSS VL: not shown | 4 | 0.000186 | 42400 | 0.27 | 
Ha16-1(3,5)56 (antibody, V domains shown) VH: RCRLVESGAEVKKPGESLKISCKGSGYRFTSYWIGWVRQMPGKGLEWMGIIYPGDSDTRYSPSFQGQVTISADKSISTAYLQWRSLKASDTAMYYCARKDYYYYVMDVWGQGTTVTVSS VL: DTISCTGTSSDVGNYNYVSWYQQHPGKAPKLMIYAVNNRPSGVSNRFSGSKSGNTASLTISGLQAEDEADYYCSSYTSSRNLVVFGGGTKLTVLG | 14.5 | 0.000593 | 40800 | 0.019 | 
Ha16-1(3,5)42 (antibody, V domains shown, Entries hold the leader (or part of it) and a portion of the constant region) VH: EVQLVQSGAEVKKPGESLKISCKGSGYRFTSYWIGWVRQMPGKGLEWMGIIYPGDSDTRYSPSFQGQVTISADKSISTAYLQWSSLKASDTAMYYCARKDYYYYSMDVWGQGTTVTVSS VL: QSALTQPASVSGSPGQSITISCTGTSSDVGRFNYVSWYQQRPGKAPKLMIYAVNIRPSGVSNRFSGSKSGNTASLTISGLQAEDEAGYYCSSYTSSSTLLVFGGGTKLTVLG | 4.3 | 0.000205 | 47600 |  | 
H16-1(3,5)5 (antibody, V domains shown, Entries hold the leader (or part of it) and a portion of the constant region; also called Ha16-1(3,5)5) VH: EVQLVQSGAEVKKPGESLKISCKGSGYRFTSYWIGWVRQMPGKGLEWMGIIYPGDSDTRYSPSFQGQVTISADKSISTAYLQWSSLKASDTAMYYCARKDYYYYTMDVWGQGTTVTVSS VL: QSALTQPASVSGSPGQSITISCTGTSSDVGGYNYVSWYQQHPGKAPKLMIYAVSNRPSGVSNRFSGSKSGNTASLTISGLQAEDEADYYCSSYTISRILVVFGGGTKLTVLG | 7.2 | 4.76e-05 | 6600 |  | 
Ha16-1(3,5)19 (antibody, V domains shown, Entries hold part of the leader and a portion of the constant region) VH: EVQLVQSGAEVKKPGESLKISCKGSGYRFTSYWIGWVRQMPGKGLEWMGIIYPGDSDTRYSPSFQGQVTISADKSISTAYLQWSSLKASDTAMYYCARKDYYYYAMDVWGQGTTVTVSS VL: QSALTQPASVSGSPGQSITISCTGTSSDVGRYNYVSWYQQHPGQAPKLMIYGISIRPSGVSPRFSGSKSGNTASLTISGLQAEDEADYYCSSHTSNSTLVVFAGGTKLTVLG | 1.68 | 8.4e-05 | 50000 |  | 
H16-9.44 (antibody, V domains shown, also called Ha16-9.44) VH: LSLTCTVSGGSISSYYWSWIRQSAGKGLEWIGRIYTGVSTNYNPSLKSRVTMSVDTSKNQFSLKLSSVTAADTAVYYCARDYYDSSGYYPFDYWGQGTLVTVSS VL: DIQMTQSPSSLSASVGDRVTISCRASQGISNYLAWFQQKPGKAPKSLIYAASSLENGVPSKFSGSGSGTDFTLTISSLQPEDFATYYCQQYNSSPFTFGPGTKVDIRR | 0.76 | 0.000132 | 174000 | 1.27 | 
Ha16-1(1)23 (antibody, V domains shown) VH: VESGGGVVQPGRSLRLSCAASGFTFRSYGMHWVRQAPGKGLEWVAVIWSDGSNKYYADSVKGRFTISRDNSKNTLYLQMNSLRAEDTAVYYCAREGYYGSGSYYYYYGMDVWGQGTTVTVSS VL: QAGLTQPPSVSKGLRQTATLTCTGNSNNVGTQGAAWLQQHQGHPPKLLSYRNNNRPSGISERLSASTSGNTASLTITGLQPEDEADYYCSAWDSSLSAVVFGGGTKLTVLG | 24 | 0.00088 | 36000 |  | 
H16-9.10 (antibody, V domains shown, also called Ha16-9.10) VH: LLESGPGLVKPSQTLSLTCAISGDSVSSNSAAWNWIRQSPSRGLEWLGRTYYRSKWYNAYAVSVKSRMTINPDTSKNQFSLQLNSVTPEDTAVYYCAREAGGWFDPWGQGTLVTVSS VL: DIQMTQSPSSVSASVGDRVTITCRASQGIRSWLAWYQQKPGKAPKLLIYAASSLQSGVPSRFSGSGSGTDFTLTISSLQPEDFATYYCQQANSFPPTFGGGTKVEIKR | 7.4 | 0.000442 | 59500 | 0.5 | 
H16-9.33 (antibody, V domains shown) VH: EVQLLESGPGLVKPSQTLSLTCAISGDSVSSNSAAWNWIRQSPSRGLEWLGRTYYRSKYYNAYPVSVKSRITINPDTSKNQFSLQLNSVTPEDTAVYYCAREAGGWFDPWGQGTLVTVSS VL: DIQMTQSPSSVSASVGDRVTITCRANQGIRSWLAWYQQKPGKAPKLLIYAASSLQSGVPSRFSGSGSGTDFTLTISSLQPEDFATYYCQQANSFPPTFGGGTKVEIKR | 3.9 | 0.000257 | 66300 |  | 
Ha16-1(3,5)27.1 (antibody, V domains shown, VH entry holds part of the leader; both hold a portion of the constant region) VH: LVESGAEVKKPGESLKISCKGSGYRFTSYWIGWVRQMPGKGLEWMGIIYPGDSDTRYSPSFQGQVTISADKSISTAYLQWSSLKASDTAMYYCARKDYYYYSMDVWGQGTTVTVSS VL: GQSALTQPASVSGSPGQSITISCTGTSSDVGGYNYVSWYQQHPGQAPKLLIYGVNIRPSGVSTRFSGSKSGNTASLTISGLQAEDEADYYCSSYTRSSILVVFAGGTKLTVLG | 4.8 | 0.000177 | 36900 | 0.014 | 
H16-1.93 (antibody, V domains shown, Entries hold the leader (or part of it) and a portion of the constant region; also called ATCC PTA-7449) VH: QVQLVQSGAEVKKPGASVKVSCKASGYTFTSYGISWVRQAPGQGLEWMGWISAYNGNTYYAQKLQARVTMTTDTSTSTAYMELRSLRSDDTAVYYCARDGYSSSWSLLHYYGMDVWGQGTTVTVSS VL: DIQMTQSPSSLSASVGDRITITWRSSQGIYNSLAWYQQKPGKVPKLLIYAASTLHSGVPSRFSGSGSGTDFTLTISSLQPEDVATYYCQKYNSAPFTFGPGTKVDIKR |  |  |  | 0.09 | 

From US20090022663A1 (published 2009)
